From US12065466B2, “Methods and compositions for protein sequencing” (Quantum-Si Incorporated, priority 2020, dated 2024)

B1: PS507: UBR-box domain homolog, SEQ ID NO: 135 (protein, listed as Sparassis crispa)
chain: MPCGHIFKKGESCFRCKDCALDDSCVLCSKCFEATDHANHNVSFFIAQQSGGCCDCGDIEAWLVPIDCPFHPV
B2: PS506: UBR-box domain homolog, SEQ ID NO: 134 (protein, listed as Capitella teleta)
chain: MLCGKVFKMGELTYSCRDCGTDPTCVLCMDCFQHSAHKKHRYKMAASGGGGYCDCGDREAWKAEPFCDVHKR
B3: PS509: UBR-box domain homolog, SEQ ID NO: 137 (protein)
chain: MICGHGFKTGEPTYSCRDCATDPTCVLCISCFQKSPHREHRYKMSASGGGGYCDCGDPEAWKIEPFCEQHKP
modifications: Lottia gigantean
B4: PS501: UBR-box domain homolog, SEQ ID NO: 129 (protein, listed as Amanita thiersii)
chain: MICGQIIGKGESCFRCRDCGLDESCVMCSQCFHATDHINHNVSFFVSQQPGGCCDCGDEEAWKKPMNCPYHPP
B5: PS508: UBR-box domain homolog, SEQ ID NO: 136 (protein)
chain: MLCGRVFKEGETVYSCRDCAIDPTCVLCIECFQKSVHKSHRYKMHASAGGGFCDCGDLEAWKTGPCCSQHDP
modifications: Anabarilius graham
B6: PS512: UBR-box domain homolog, SEQ ID NO: 140 (protein, listed as Mastacembelus armatus)
chain: MLCGRVFKEGETVYSCRDCAIDPTCVLCMDCFQDSVHKSHRYKMHASAGGGFCDCGDVEAWKIGPYCSKHDP
B7: PS511: UBR-box domain homolog, SEQ ID NO: 139 (protein, listed as Habropoda laboriosa)
chain: MICGKVFKMGEATYSCKECGVDPTCVLCADCFKQSAHRHHKYRMGTSSGGGFCDCGDIEAWKKEPFCNTHLA
B8: PS504: UBR-box domain homolog, SEQ ID NO: 132 (protein, listed as Galleria mellonella)
chain: MLCGKVFKQGEPAYSCRECGMDNTCVLCVECFKVSPHRHHKYKMGQSGGGGCCDCGDTEAWKRDPFCERHAK
B9: PS502: UBR-box domain homolog, SEQ ID NO: 130 (protein, listed as Helobdella robusta)
chain: MVCLKVFKLGEPTYSCRSVTCGMDPTCVLCVDCFQNSSHKLHKYKMSTSGGGGYCDCGDLEAWKADPLCDLHKL
B10: PS503: UBR-box domain homolog, SEQ ID NO: 131 (protein, listed as Hydra vulgaris)
chain: MFCGRLFKVGDPTYTCKDCAADPTCVFCHDCFHQSVHTKHKYKLFASQGRGGYCDCGDKEAWTNDPACNKHKE
B11: Saccharomyces cerevisiae GID10: SEQ ID NO: 125 (protein, listed as Saccharomyces cerevisiae)
chain: MTSLNIMGRKFILERAKRNDNIEEIYTSAYVSLPSSTDTRLPHFKAKEEDCDVYEEGTNLVGKNAKYTYRSLGRHLDFLRPGLRFGGSQSSKYTYYTVEVKIDTVNLPLYKDSRSLDPHVTGTFTIKNLTPVLDKVVTLFEGYVINYNQFPLCSLHWPAEETLDPYMAQRESDCSHWKRFGHFGSDNWSLTERNFGQYNHESAEFMNQRYIYLKWKERFLLDDEEQENQMLDDNHHLEGASFEGFYYVCLDQLTGSVEGYYYHPACELFQKLELVPTNCDALNTYSSGFEIA
B12: PS510: UBR-box domain homolog, SEQ ID NO: 138 (protein, listed as Camponotus floridanus)
chain: MICGRMFKMGEPTYSCRQCGMDSTCVLCVDCFKQSAHRNHKYKMGTSSGGGCCDCGDTEAWKNEPFCKIHLA
B13: PS388: ClpS protein, SEQ ID NO: 16 (protein)
chain: MVTTLSADVYGMATAPTVAPERSNQVVRKTYPNYKVIVLNDDFNTFQHVAECLMKYIPGMSSDRAWDLTNQVHYEGQAIVWVGPQEPAELYHQQLRRAGLTMAPLEAA
B14: PS368: ClpS protein, SEQ ID NO: 1 (protein)
chain: MASAPSTTLDKSTQVVKKTYPNYKVIVLNDDLNTFDHVANCLIKYIPDMTTDRAWELTNQVHYQGQAIVWTGPQEQAELYHQQLRREGLTMAPLEAA
B15: PS391: ClpS protein, SEQ ID NO: 19 (protein)
chain: MGQTVEKPRVEGPGTGLGGSWRVIVRNDDHNTFDHVARTLARFIPGVSLERGHEIAKVIHTTGRAVVYTGHKEAAEHYWQQLKGAGLTMAPLEQG
B16: PS394: ClpS protein, SEQ ID NO: 22 (protein)
chain: MAERRDTGDDEGTGLGIATKTRSKTKKPTPYRVLMLNDDYTPMEFVVLCLQRFFRMNMEEATRVMLHVHQKGVGVCGVFSYEVAETKVGQVIDFARANQHPLQCTLEKA
B17: PS392: ClpS protein, SEQ ID NO: 20 (protein)
chain: MSVEIIEKRSTVRKLAPRYRVLLHNDDFNPMEYVVQTLMATVPSLTQPQAVNVMMEAHTNGMGLVIVCALEHAEFYAETLNNHGLGSSIEPDD
B18: PS390: ClpS protein, SEQ ID NO: 18 (protein)
chain: MLSIAAVTEAPSKGVQTADPKTVRKPYPNYKVIVLNDDFNTFQHVSSCLLKYIPGMSEARAWELTNQVHFEGLAVVWVGPQEQAELYYAQLKNAGLTMAPPEPA
B19: PS389: ClpS protein, SEQ ID NO: 17 (protein)
chain: MLNSAAFKAASASPVIAPERSGQVTQKPYPTYKVIVLNDDFNTFQHVHDCLVKYIPGMTSDRAWQLTHQVHNDGQAIVWVGPQEQAELYHQQLSRAGLTMAPIEAA
B20: PS393: ClpS protein, SEQ ID NO: 21 (protein)
chain: MSDEDGEDGDENAVGIATRTRTRTKKPTPYRVLLLNDDYTPMEFVVLVLQRFFRMSIEDATRVMLQVHQKGVGVCGVFTYEVAETKVSQVIDFARQNQHPLQCTLEKA
B21: PS395: ClpS protein, SEQ ID NO: 23 (protein)
chain: MTVSQSKTQGAPAAQSATELEYEGLWRVVVLNDPVNLMSYVVLVFKKVFGFDETTARKHMLEVHEQGRSVVWSGMREKAEAYAFTLQQWHLTTVLEQDEVR

System: amino acid at a terminal position of a polypeptide
Assay: not given
Conditions: Table 2; amino acid identity at a terminal position (phosphotyrosine also internal); inferred from literature and/or demonstrated by the inventors; cited from earlier work
In the case of B1, the “Binding Pref.” value is listed as “K, R, H”. For B2, the “Binding Pref.” value is given as “K, R, H”. In the case of B3, the “Binding Pref.” value is listed as “K, R, H”. For B4, the “Binding Pref.” value is listed as “K, R, H”. In the case of B5, the “Binding Pref.” value is given as “K, R, H”. In the case of B6, the “Binding Pref.” value is given as “K, R, H”. In the case of B7, the “Binding Pref.” value is given as “K, R, H”. For B8, the “Binding Pref.” value is listed as “K, R, H”. In the case of B9, the “Binding Pref.” value is given as “K, R, H”. For B10, the “Binding Pref.” value is listed as “K, R, H”. In the case of B11, the “Binding Pref.” value is given as “P, M, V”. In the case of B12, the “Binding Pref.” value is given as “K, R, H”.

System: amino acid at a terminal position of a polypeptide
Assay: Amino acid binding preference of recognition proteins (Tables 1 and 2)
Conditions: Table 1, ClpS proteins; amino acid identity at a terminal position of a polypeptide; inferred from literature and/or demonstrated by the inventors
Description: It should be appreciated that these sequences and other examples described herein are meant to be non-limiting, and recognition molecules in accordance with the application can include any homologs, variants thereof, or fragments thereof minimally containing domains or subdomains responsible for peptide recognition.
For B13, the “Binding Pref.” value was “F, Y, L”. With B14 the “Binding Pref.” value was “F, Y, W, L”. With B15 the “Binding Pref.” value was “F, Y, W, L”. In the case of B16, the “Binding Pref.” value is reported as “F, Y, W, L”. For B17, the “Binding Pref.” value was “F, Y, W”. For B18, the “Binding Pref.” value was “F, Y, L”. In the case of B19, the “Binding Pref.” value is reported as “F, Y, L”. In the case of B20, the “Binding Pref.” value is reported as “F, Y, W, L”. With B21 the “Binding Pref.” value was “F, Y, W, L”.
